# Results: the domain aggregation screens of Martell et al. (2025)
# Experiment: soluble fraction after stress (log2 fold change); higher = more stays soluble; pooled small domains, quantitative proteomics
# Settings: stress: pH 4
# In short: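 Pooled custom libraries of small protein domains were stressed at pH 4 and then measured by high-throughput quantitative proteomics. The fold change in the amount of each domain that stays soluble after the acid stress serves as a measure of aggregation propensity. Fold changes are given on a log2 scale, and higher values mean more of the domain stayed soluble.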
row,Sequence,soluble fraction (log2)
1,HMKTALQENVRAYRLERKWTQQALAEALEVSVGAVSKWESGVSRPELETLMRLAELFGVSTDALLGF,-1.09
2,HMAVSSYSVKRYIRNMIQAEDPSAPFSDEALRLALLAHGIAVSRRVVTKYRMAMDIPSSSQRRKR,-0.12
3,HMTGKVKWYDADKGFGFVTEDGGRDVYVRKSALPQGVETLKAGQRLEFGIAEGRRGPQALSVR,-0.0382
4,HMKNYYRILGLNIDAEYEEIKAAYRILAQRHHPDKGGAAAEFRLIQEAYDILSNPLTKRNYDADLLATLN,-1.08
5,HMQMEISQRIKLERQTLKWTQEELADKIFVSKRTISNWETGRTVPDIESVLRLAKVFHVSLEDLLL,-0.021
6,HMYINVQNARTIASFRSSLWRMHRDFTNQGYITADGLKTFLEMGKLYEDAGGNDIYHSKLLPEITALEIKY,-0.421
7,HMEMKVIPFNQMTRDQFDQLDRFLGRLAAAQAMGSLRLTKAQQNYFLNQVKQLDLYRKRILN,0.0144
8,HMKIVFGHVKWFDIDKGFGFLVLEDEGGDVLLHANVLKNFGRTSVSEDTKIEFEFLETDKGRQVSTIYNIL,-2.19
9,HMLAGVDTLADRELEVFQMLGRGKSTKEIAQVLNLGESTVETYRARIKEKLQLRSAAELYLRAGQWVRDHG,-0.426
10,HMVSDAELTSQATTAITAYPGTSVEVKEGQAHLSGTFATEADKQAAIDALKKIQDVKDVHDMATV,0.0294
11,HMALLSNEDIMFNLEFNRDLAVASNDGVSRDEFLRNKYGISEEEYNMLRARYGDGLNAARIKEYVGQRD,-0.36
12,HMKSTPMYATAIVNIRSKAGTDSEILGKLNPSEEISVISSENGWSKVSYNGKEAYISSNYLSNAKP,0.22
13,HMGTRIQAVMEDIQSRIAARTYLPGTRLPSVRAQAQAMQVSVSTVVEAYERLAAEGVIASRPGSGFYVAGP,≥ 0.43
14,HMKPVYNKVEIPRGGEYALVLSDGTKVHLNSMSSLRFPVAFTTGKREVELQGEAYFEVSKTGQPFIVNV,0.22
15,HMVMTTVPEVLGMDISKAASLLTGKNLDYDYDLVESDKPKDQVIEQDVVKGTEVPEGTVIHLKVSKGPA,-0.0925
16,HMNEDFSEIIAAVKKFAVDNLSLSTLSDEELEEQIKTITDNMIGNRYVSIKNRVDIAQQVFSSIR,-0.435
17,HMDQNVSVPKLAGLQVEEANAILKSKGLHIEIIDSIYQKDAVPGAIIEQVPEENSKVKKGRAIYVSVYAK,0.0139
18,HMSEFLTIVRAVYSGLSRRKVAAMHKVSRNTVSLYLRQARDQGWLTLEDLEKLDDLTVSQGVS,-0.918
19,HMERFVVISKDKYANLREEASTNSKVLAKVDNSYLIYNTNTYNENKDWYSVQIERDGNYYQVGYIHKSQL,-1.82
20,HMNSKKRQAILESLRSVTDHPTAEMIYNRLKPEYPDLSLGTVYRNLAMFLEEGQVISVGTVDGQERYDAR,0.34
21,HMSSEQRSVLFPNLAETDKVAVIEALMAAGVNARVDSASGRVTVPSGDYYNSRAILAAQGLPTS,-0.175
22,HMTGLFSPTEQTRHSKTGATLYSVKLAERIERNAFQSLKKRAKEHDGYYSSFTRSFLFDTPEDAEAFRGT,-0.0888
23,HMGNYEEAILAFEAAIKIDPKNADAYRKLAEAYEKTGDEDAALRTLETGAEATGDRELADLAEKKRQELDA,0.22
24,HMFFDSDTDIQNALNAENSIKKYQLFRTQTLYNSAQSDIDFVNQPEVKAKLFDALENLKNKLGFLAEPT,-0.4
25,HMEATVGSRVRLARIGLTLTQKQLAQAVGVSANHLAMVERGSKHASEDLLQRIATATHTTYEWLMGTSEHQ,0.174

row,Sequence,soluble fraction (log2)
1,HMYDFGVILQKLRKEKGFTQEQLARLIHKESSIISRYEKGLQNPTFETVKEFAAIFNVSMDYLAG,-0.255
2,HMVEVPEQLRDLLERSIEDLAELSVRSRNSLQKENIQTLGDLVQRTEEEMLGIENFGKKSLTEIAAFL,-0.92
3,HMRPEVTEHLKTADAILHGGDINRQSIVDELRQYAPLYIVRGNNDKDWAEAIPHDLTVTLGGVTFFMVHNR,-0.42
4,HMAQVSDTGELEGVVDGVLAANAKSVADFQAGKENAFQYLIGQVMKETKGKANPEVVATLLRTKLS,0.121
5,HMNPLPALLRYFRQKAGLTQQDVAAALSISRSGYANYEEGRNIPNIEQAIKLSELLNHDFLYAYTLSS,-0.749
6,HMPNPSAGRVHIDALLPFDRVEVTDMQGSLLLDHSFSPRRAVDLDLNARGTLLYTLWSKGHLLGKGRVVR,0.213
7,HMARRKRDIDSDINVKVFEHWLDNLDSASRESFSAFAEETFSPIQVYLYAKFLGYESSIIAVDHWVAVAYP,-0.574
8,HMKISDMIETNLKFLRGKHSISQAELAESLGIPRTTLSAYERGFVEPNIELMLKMAKYFNVSLDDLIAYN,-1.3
9,HMGAGKVVDGVTYDFVFDVDVADGQPPLRLPYNRGEDVYQAAERFILRNELPATYREQIVNFIVQNTPG,-1.79
10,HMANHIAAIHVLKSKLQMSDSDYRVLITGLTQKASTKDMSDIERQRVRDHMQGLAERMGVVK,0.0887
11,HMPKAPHETLSRREMEVLLLLSEGVTLTRIGDTIHVSVKTVSTYRARILQKLDLQSNAELTRYVLQHKL,≥ 0.43
12,HMSKQVDVVIYILENTKAADNTYIGTYRKTADGAGVSLDTATKVMRKLQENNFIKKVQNGVYQISPLIMM,-0.519
13,HMDREILWTNYVAARKQEFIASSIDTIGAEYLDNRRFWDTQFEREWTIIAERLASGFGLTDDILSIVGSDF,-2.71
14,HMDPHEEELLRQLIRGDIAGYEVLFHKYYPTFFAFIKGMTKETVVAEDITQNIFMKVWLNRERLDAA,-0.535
15,HMGSFAADVGRMVRLGRAKRGISRRKLAADSGISERYLAQIEGGQGNPSVNVLKAIADAISVPVFELLPH,-0.197
16,HMFVTGTTIKKLREEKRMTQGELAQMIGVSDKAVSKWETGRGLPDISLLEPLSRALGISVAELFAGQH,-0.0399
17,HMGMMTLGQRIAQYRKAMGISQEELGGRLGVSRQAVSKWETDAAAPDMENLLALAREFGVSVAELTETP,-0.11
18,HMLGKSNAERQLDLILGAIERSITGVSRSKLMQAYHLDSRGATAAFETLEQRGLITRSKSGRTELLIPTRV,0.126
19,HMSGSGYAYVDKYGYSHVVKDYDTAKNYASDGNVYNYSGSHKGGYAYDADNYRVPLDLPGSKPYG,-0.183
20,HMVVYDAELLLNINPGMSYEEVKEMLGDPGMIIAGNDAENSVYRWSTGGISFMGRFENGALIRKSIISP,-0.916
21,HMGVRVEVDAVTPPGAMASGSVVFSDGESKKWSVDQFGRLAMTGGAPDYKPSDQDVMEFQQQLEQSL,-0.57
22,HMSLEEIPLEERLGPGGLDPVAVYDSLPREMRDAFDSGSVSALREFVNALPAEDAARHMKAMVDSGLWVPT,-0.794
23,HMNENYNLSKREKEVLDLLVNGKSYKVIATELAISYETVHSHIKKIYHKLHVSSIGEAVSKTIKQKIL,-0.561
24,HMQFQVHEIKGKEYYIHVVEKGNTLYAISRMYSVPIETLKEENPRLNTTELTIGDRLLIPLDEVKRKNIE,-0.316
25,HMRPSGEAVNAAYRLLKGANPSGNEGDLIQRAQEVAAILPKLNRSSAAAFAKDAKANGLTQAETIALWKGS,0.163

row,Sequence,soluble fraction (log2)
1,HMDGEFINLKNRAGTEIEARILNYQNGQVKLERKDGVTFVVSISMFDAKSVIAINHKIAEIIDT,0.12
2,HMDAYMIGHNIAKWRKEKGMTQDQLAEHLSVSGQAVSKWENGASLPDIAILPKLAEIFDVTMDQLFSR,0.166
3,HMKVRDTQYIIEAAISKNVIRKSKNIYYYGTDIIGRSLEDAIASLNDKKNQDIKMTILQEIES,0.0993
4,HMNLKDINLNVRHYKIIDFVREHGYASIETLTRQFGVSAQTVRRDIIYLDNQAVLKRHHGGVGTLPG,-0.723
5,HMYDASELNKALEEAKKLDLNNYTEESSEALKNAISKAEEALLSKDKETINSALEELNKAMDSL,-0.615
6,HMARSVAEFVERGRSGGSLERPKLQRMLEYIQDRPVDFVIVHKIDRLARNRADDAAITKTIRGAGAYLVST,-0.103
7,HMGTRPIQIASFSKEENAKRAVEALAKIGITAQPQKSGSATKAVWGVVANGDADLLAKIKAAGFADAYFL,0.179
8,HMPVISGQDLRVLIRDTGRERDQGISFLDDGTMVVVEDARRLIGQEVTATVTRVHQTQTGRIVFAHLSN,-0.698
9,HMAARKDLIAGEDAEGRLDAWLAAALDGEFSRNRVKALIEQGAVAINDVAVTEPKRKIRPGDRLSIVLPEP,0.248
10,HMTVAQEIEARRATIRSSDPAEMARFIRWLIMEGHTEPAADELKKYAENFPEASATTKQLQALLAAR,0.147
11,HMNNESEGAIMLRQYSSLSAYLTKYNIDVNSKKAQQYASSLKLAQEKGSAEGQKYLSSISSELDD,0.00542
12,HMGPTPTSAQLTEAKRLRTKLDDLNPELAERLWSEHREPYTETQYQTLIEKLAAEVQSAEGEIGR,0.351
13,HMLEDIDNSIKKEIILEHYDKMLEFHGDYGAIIFRKLLHAYSKGYTGANEFRDLVNQISDKNIMRDLIESF,-1.17
14,HMNVPFGYTIKDGLLVEQPDEKAILDNILTWKKGQMTVAEIAKKTGMETWKIYGILNYWRNK,-0.438
15,HMATEPLQPRVEVLGSTLATTNGARIVGVYDMSGREVSATQLSKGVYIVKVTNGSVTATQKVFI,0.254
16,HMLTAPMPGIVTEILVKEGQRVRSGQPLMILEAMKMEHQVTAPKSGQIEKIYFSEGEKVDMGSDLLSIS,-0.0146
17,HMDFIEYIISEESKGLRADQAISMENDKFSRSLIQKWIKKGRVLVNGRKIKPKDIVNLNDKITINPEESIN,-0.597
18,HMRAAKSEDTRTRLIEGGMALFGQKGYNATGIKDITDAAGVPKGSFYNYFASKEDFGAEIIHSY,-0.0559
19,HMTTGREGLIGAVGTVRQAIAPEGYVFVEGELWRAKSPAGPLEPGTTVRVIAIDGLTLTVMPAE,-0.564
20,HMSEPTLESLRAEGAHHYDPARFHYLEVLARRMPGQHAAVQQVLASRLREAVAAYAGRRSLI,-0.252
21,HMQSSDQTDNIYENAVSIVLETGKASASHLQRVLGIDYNLAAHLIDKMEDGGLLSPPNYLGHRDVYGYT,-1.06
22,HMITNEDINIKKLLVVMKDTPLSANEIMDKLNIKSKETLRNMYLDPAIKKGLINLTIPDKPTSKNQKYYK,0.22
23,HMEKDEYIFVDIDGAVFNPGVYKLIAGSRVIDAINLAGGLKEKAFTQNLNKARKLVDGEKIYIYLEGDEE,-1.23
24,HMSGSIIQQAENLERQFGDTREAILGTLSDPKMSEEILETLMERYNKQHGTNWDKNTWAEEWAKANK,-0.355
25,HMKELLQEMIMDILRAIASPNIDIKRKTLDLVLDLITPRNIDNVTGMLKTEVVKSQSENTSDVG,-0.572
